Drawing on paper PMC8600086, this text covers stoichiometry N for 1 substance.

What is called stoichiometry N is the number of molecules, sites or subunits per partner or assembly.

In this test the target is recombinant MH8SR-tagged PfKelch13^337-726 (Plasmodium falciparum). The test can be described thus: SEC. (In general: SEC sorts molecules by how far they enter the pores of the column.)

Several values for one entry are separate records, joined by “and”; a condition that tells them apart may be missing. Equal entries are not always repeated.

With “recombinant MH8SR-tagged PfKelch13^337-726 (domain or fragment)”, the stoichiometry N was 2 and 4.
